Series [1] concerns the target T1, Dcm N436K (Escherichia coli) (UniProt P0AED9).
T1 sequence: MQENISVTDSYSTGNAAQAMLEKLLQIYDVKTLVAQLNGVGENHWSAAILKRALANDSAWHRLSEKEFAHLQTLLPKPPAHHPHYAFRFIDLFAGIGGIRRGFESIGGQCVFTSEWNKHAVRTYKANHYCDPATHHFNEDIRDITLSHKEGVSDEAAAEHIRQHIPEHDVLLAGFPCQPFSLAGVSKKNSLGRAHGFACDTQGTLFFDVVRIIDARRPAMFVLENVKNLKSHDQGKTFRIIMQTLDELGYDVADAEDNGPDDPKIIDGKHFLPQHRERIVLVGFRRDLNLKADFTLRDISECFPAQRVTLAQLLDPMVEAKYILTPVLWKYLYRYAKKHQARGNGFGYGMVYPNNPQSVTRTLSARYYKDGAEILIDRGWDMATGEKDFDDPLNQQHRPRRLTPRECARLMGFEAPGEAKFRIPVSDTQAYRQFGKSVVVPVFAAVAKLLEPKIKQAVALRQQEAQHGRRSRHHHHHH
Nature of the series: cell_activity. Particulars: CCWGG sites carboxymethylated; also makes 5mC.

The test system of series [2] is M.MpeI N374K (Mycoplasma penetrans). The following applies: 5mC on one strand of CpG; CxSAM preferred over SAM 1.3-fold; HpaII protection assay.
Series [3] has the same test system. The following applies: CpGs converted to 5cxmC with CxSAM; ~60% 5mC with SAM; bisulfite sequencing.
The test system is the same in series [4]. The following applies: CpGs modified with SAM or CxSAM, bisulfite sequencing.
The subject of series [5] is M.MpeI WT K374N (reversion to wild type) (Mycoplasma penetrans). Particulars: CpGs modified with SAM; no transfer with CxSAM.

Like-named read-outs stand apart in the source and are kept apart here.

As to E. coli genomic DNA (dam-/dcm-), the activity in series [1] is more than 1.5%.
Substance “hemimethylated CpG fluorophore-labelled oligonucleotide” came in with a binding signal in series [2] of 1.3 fold.
For the substance lambda phage genomic DNA, unmethylated, the activity in series [3] was 50%.
On to pUC19 plasmid DNA, for which the activity in series [4] is more than 70%; in series [5] it was 100%.
